Each binder was assayed against HLA-A*0301 (human) (assay: competition with 125I-labelled standard peptide for purified HLA-A*0301, gel filtration). Conditions: not given.
With AVCDKCLK (modifications not checked) [HPV16 E6 position 68 peptide AVCDKCLK] the binding affinity ratio (IC50 of the standard peptide / IC50 of the test peptide) was 0.0053. AVCDKCLKFY (modifications not checked) gave a binding affinity ratio (IC50 of the standard peptide / IC50 of the test peptide) of 0.0052. Work on CCRSSRTRR (modifications not checked) [HPV16 E6 position 146 peptide …] yielded a binding affinity ratio (IC50 of the standard peptide / IC50 of the test peptide) of 0.0003. With AFRDLCIVY (modifications not checked) [HPV16 E6 position 53 peptide …] the binding affinity ratio (IC50 of the standard peptide / IC50 of the test peptide) was 0.0052. TAQEAKQHR (modifications not checked) [HPV16 E1 72 …] showed a binding affinity ratio (IC50 of standard peptide / IC50 of test peptide) of 0.0005. SVICFVNSK (modifications not checked) [HPV16 E1 497 …] showed a binding affinity ratio (IC50 of standard peptide / IC50 of test peptide) of 0.0005. Binder AVCDKCLKF (modifications not checked) has a binding affinity ratio (IC50 of the standard peptide / IC50 of the test peptide) of 0.0002. SLFGMSLMK (modifications not checked) [HPV16 E1 484 …] showed a binding affinity ratio (IC50 of standard peptide / IC50 of test peptide) of 0.72. For RLKAICIEK (modifications not checked) [HPV16 E1 109 …], the binding affinity ratio (IC50 of standard peptide / IC50 of test peptide) was 0.084.

Same assay, conditions: remark: other sources report otherwise
For AMFQDPQER (modifications not checked) [HPV16 E6 position 7 peptide …], the binding affinity ratio (IC50 of the standard peptide / IC50 of the test peptide) was 0.017.

The binders below were run against HLA-A*0201 (human) (assay: not given). Conditions: not given.
SLACSWGMVV (modifications not checked) showed a relative binding ratio (IC50 of standard peptide / IC50 of test peptide) (ratio to standard peptide) of 0.13. Binder FVNSKSHFWL (modifications not checked) [HPV16 E1 501 peptide …] has a relative binding ratio (IC50 of standard peptide / IC50 of test peptide) of 0.0015. ALKRFLQGI (modifications not checked) [HPV16 E1 … (position 459)] was tested, and the relative binding ratio (IC50 of standard peptide / IC50 of test peptide) was 0.0062. CLYLHIQSLA (modifications not checked) was tested, and the relative binding ratio (IC50 of standard peptide / IC50 of test peptide) was 0.0032. Work on KLRSTAAAL (modifications not checked) [HPV16 E1 311 …] yielded a relative binding ratio (IC50 of standard peptide / IC50 of test peptide) of 0.0003. ALYWYKTGI (modifications not checked) [HPV16 E1 … (position 318)] gave a relative binding ratio (IC50 of standard peptide / IC50 of test peptide) of 0.0019. Work on TLLQQYCLYL (modifications not checked) [HPV16 E1 253 …] yielded a relative binding ratio (IC50 of standard peptide / IC50 of test peptide) (ratio to standard peptide) of 0.65. CLYLHIQSL (modifications not checked) was tested, and the relative binding ratio (IC50 of standard peptide / IC50 of test peptide) was 0.076. Binder LMKFLQGSVI (modifications not checked) [HPV16 E1 490 …] has a relative binding ratio (IC50 of standard peptide / IC50 of test peptide) of 0.0003. FLKSNSQAKI (modifications not checked) [HPV16 E1 392 peptide …] gave a relative binding ratio (IC50 of standard peptide / IC50 of test peptide) of 0.0011. Work on SLMKFLQGSV (modifications not checked) [HPV16 E1 489 …] yielded a relative binding ratio (IC50 of standard peptide / IC50 of test peptide) (ratio to standard peptide) of 0.025. In the case of QLKCPPLLI (modifications not checked) [HPV16 E1 556 …], the relative binding ratio (IC50 of standard peptide / IC50 of test peptide) (ratio to standard peptide) is reported as 0.0049. In the case of SLACSWGMV (modifications not checked), the relative binding ratio (IC50 of standard peptide / IC50 of test peptide) (ratio to standard peptide) is reported as 0.082. LLQQYCLYL (modifications not checked) [HPV16 E1 254 …] gave a relative binding ratio (IC50 of standard peptide / IC50 of test peptide) of 0.1. ELSQMVQWA (modifications not checked) [HPV16 E1 356 peptide …] gave a relative binding ratio (IC50 of standard peptide / IC50 of test peptide) of 0.0003.

Source: US7026443
